Assay results published in US20220380456A1 (UNITED KINGDOM RESEARCH AND INNOVATION, published 2022).

T1: His6-TEV-MSP1D1 (CA15914) (human Apo A-I derived, engineered, biotinylated with EZ-link NHS-Biotin for the BLI experiment only)
T1 construct: Membrane scaffold protein; The entry holds the 6xHis tag, the TEV cleavage site and MSP1D1; Tested in Apo-state (lipid free) and in Nanodisc-state (POPC nanodisc, two MSP1D1 per nanodisc)
T1 chain: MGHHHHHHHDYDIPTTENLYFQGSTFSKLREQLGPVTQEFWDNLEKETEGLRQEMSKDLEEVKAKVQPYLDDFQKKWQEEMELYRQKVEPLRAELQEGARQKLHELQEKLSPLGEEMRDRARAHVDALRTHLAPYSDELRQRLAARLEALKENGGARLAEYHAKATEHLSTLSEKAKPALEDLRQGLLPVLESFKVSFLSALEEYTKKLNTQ


Assays:
[1] = molecular target: T1, His6-TEV-MSP1D1 (CA15914); test: ELISA, purified MegaBody on coated MSP (Apo- or Nanodisc-state) vs non-coated wells, A405
[2] = molecular target: T2, His6-TEV-MSP2N2 (CA15915) (human Apo A-I derived, engineered, UniProt P02647 79-267, limits assumed); test: as above
T2 construct: Membrane scaffold protein; The entry holds the 6xHis tag, the TEV cleavage site and MSP2N2; Tested in Apo-state, in Nanodisc-state, and as the belt of nanodiscs loaded with GABAAR-β3

Binder | fold ELISA signal over no MSP [1] [fold] | fold ELISA signal over no MSP [2] [fold]
MDNb1_B9^c7HopQ MegaBody (CA15898) (other, MegaBody: c7HopQ scaffold inserted in the first β-turn of Nanobody MP1521_B9; Entry includes 6xHis and EPEA tags; The name is printed 'MDNb', probably for 'MbNb') QVQLVESGGGLVQTKTTTSVIDTTNDAQNLLTQAQTIVNTLKDYCPILIAKSSSSNGGTNNANTPSWQTAGGGKNSCATFGAEFSAASDMINNAQKIVQETQQLSANQPKNITQPHNLNLNSPSSLTALAQKMLKNAQSQAEILKLANQVESDFNKLSSGHLKDYIGKCDASAISSANMTMQNQKNNWGNGCAGVEETQSLLKTSAADFNNQTPQINQAQNLANTLIQELGNNTYEQLSRLLTNDNGTNSKTSAQAINQAVNNLNERAKTLAGGTTNSPAYQATLLALRSVLGLWNSMGYAVICGGYTKSPGENNQKDFHYTDENGNGTTINCGGSTNSNGTHSYNGTNTLKADKNVSLSIEQYEKIHEAYQILSKALKQAGLAPLNSKGEKLEAHVTTSKYGSLRLSCAASGRTLCSIPMGWFRQAPGKEREFVAAIRWSGGSTYYADSVKGRFSISKDNAKNTVYLQMNNLKPEDTATYYCASAAPYSSWSRGLEYDYWGQGTQVTVSSHHHHHHEPEA | ≥ 4 | ≥ 4
MbNbG9^c7HopQ MegaBody (CA15899) (other, MegaBody: c7HopQ scaffold inserted in the first β-turn of Nanobody MP1521_G9; Entry includes 6xHis and EPEA tags) QVQLVESGGGSVQTKTTTSVIDTTNDAQNLLTQAQTIVNTLKDYCPILIAKSSSSNGGTNNANTPSWQTAGGGKNSCATFGAEFSAASDMINNAQKIVQETQQLSANQPKNITQPHNLNLNSPSSLTALAQKMLKNAQSQAEILKLANQVESDFNKLSSGHLKDYIGKCDASAISSANMTMQNQKNNWGNGCAGVEETQSLLKTSAADFNNQTPQINQAQNLANTLIQELGNNTYEQLSRLLTNDNGTNSKTSAQAINQAVNNLNERAKTLAGGTTNSPAYQATLLALRSVLGLWNSMGYAVICGGYTKSPGENNQKDFHYTDENGNGTTINCGGSTNSNGTHSYNGTNTLKADKNVSLSIEQYEKIHEAYQILSKALKQAGLAPLNSKGEKLEAHVTTSKYGSLRLSCAASGRTFSTYRMGWFRQAPGKEREFVAGWNSINIYYADSVKGRFTISGDNAKSTVYLQMNSLKPEDTAVYYCAARGLGQTEYNYWGQGTQVTVSSHHHHHHEPEA | ≥ 4 | ≥ 4
MbNbA12^c7HopQ MegaBody (CA15900) (other, MegaBody: c7HopQ scaffold inserted in the first β-turn of Nanobody MP1522_A12; Entry includes 6xHis and EPEA tags) QVQLVESGGGLVQTKTTTSVIDTTNDAQNLLTQAQTIVNTLKDYCPILIAKSSSSNGGTNNANTPSWQTAGGGKNSCATFGAEFSAASDMINNAQKIVQETQQLSANQPKNITQPHNLNLNSPSSLTALAQKMLKNAQSQAEILKLANQVESDFNKLSSGHLKDYIGKCDASAISSANMTMQNQKNNWGNGCAGVEETQSLLKTSAADFNNQTPQINQAQNLANTLIQELGNNTYEQLSRLLTNDNGTNSKTSAQAINQAVNNLNERAKTLAGGTTNSPAYQATLLALRSVLGLWNSMGYAVICGGYTKSPGENNQKDFHYTDENGNGTTINCGGSTNSNGTHSYNGTNTLKADKNVSLSIEQYEKIHEAYQILSKALKQAGLAPLNSKGEKLEAHVTTSKYGSLRLSCAASGRTFSSYNMAWFRQVPGKEREFVASIARTGSGTYYRDSVKGRFTISRDNAKNTVYLQMNSLKPQDTAVYYCTAGGSLATISDYWGQGTQVTVSSHHHHHHEPEA | ≥ 4 | ≥ 4
MbNbB7^c7HopQ MegaBody (CA15901) (other, MegaBody: c7HopQ scaffold inserted in the first β-turn of Nanobody MP1522_B7; Entry includes 6xHis and EPEA tags) QVQLVESGGGLVQTKTTTSVIDTTNDAQNLLTQAQTIVNTLKDYCPILIAKSSSSNGGTNNANTPSWQTAGGGKNSCATFGAEFSAASDMINNAQKIVQETQQLSANQPKNITQPHNLNLNSPSSLTALAQKMLKNAQSQAEILKLANQVESDFNKLSSGHLKDYIGKCDASAISSANMTMQNQKNNWGNGCAGVEETQSLLKTSAADFNNQTPQINQAQNLANTLIQELGNNTYEQLSRLLTNDNGTNSKTSAQAINQAVNNLNERAKTLAGGTTNSPAYQATLLALRSVLGLWNSMGYAVICGGYTKSPGENNQKDFHYTDENGNGTTINCGGSTNSNGTHSYNGTNTLKADKNVSLSIEQYEKIHEAYQILSKALKQAGLAPLNSKGEKLEAHVTTSKYGSLRLSCAASGRSFSSYGMGWFRQAPGKEREFAAGITGTAGITYYTDSVKGRFTISRDNAKNTVYLQMNNLKPEDTAVYYCAAGLTSYAGRGAAGYDYWGQGTQVTVSSHHHHHHEPEA | ≥ 4 | ≥ 4
MbNb2_B9^c7HopQ MegaBody (CA15903) (other, MegaBody: c7HopQ scaffold inserted in the first β-turn of Nanobody MP1522_B9; Entry includes 6xHis and EPEA tags) QVQLVESGGGLVQTKTTTSVIDTTNDAQNLLTQAQTIVNTLKDYCPILIAKSSSSNGGTNNANTPSWQTAGGGKNSCATFGAEFSAASDMINNAQKIVQETQQLSANQPKNITQPHNLNLNSPSSLTALAQKMLKNAQSQAEILKLANQVESDFNKLSSGHLKDYIGKCDASAISSANMTMQNQKNNWGNGCAGVEETQSLLKTSAADFNNQTPQINQAQNLANTLIQELGNNTYEQLSRLLTNDNGTNSKTSAQAINQAVNNLNERAKTLAGGTTNSPAYQATLLALRSVLGLWNSMGYAVICGGYTKSPGENNQKDFHYTDENGNGTTINCGGSTNSNGTHSYNGTNTLKADKNVSLSIEQYEKIHEAYQILSKALKQAGLAPLNSKGEKLEAHVTTSKYGSLRLSCVRSARTFGSVAMGWFRQAPGKEREFVTAIDWSGSNTLYADSVKGRFTISRDNAKNTVYLQMNSLKPDDTAVYYCAASRRVVVTTSDFDSWGQGTQVTVSSHHHHHHEPEA | ≥ 4 | ≥ 4
MbNbE4^c7HopQ MegaBody (CA15191) (other, MegaBody: c7HopQ scaffold inserted in the first β-turn of Nanobody MP1521_E4; Entry includes 6xHis and EPEA tags) QVQLVESGGGLVQTKTTTSVIDTTNDAQNLLTQAQTIVNTLKDYCPILIAKSSSSNGGTNNANTPSWQTAGGGKNSCATFGAEFSAASDMINNAQKIVQETQQLSANQPKNITQPHNLNLNSPSSLTALAQKMLKNAQSQAEILKLANQVESDFNKLSSGHLKDYIGKCDASAISSANMTMQNQKNNWGNGCAGVEETQSLLKTSAADFNNQTPQINQAQNLANTLIQELGNNTYEQLSRLLTNDNGTNSKTSAQAINQAVNNLNERAKTLAGGTTNSPAYQATLLALRSVLGLWNSMGYAVICGGYTKSPGENNQKDFHYTDENGNGTTINCGGSTNSNGTHSYNGTNTLKADKNVSLSIEQYEKIHEAYQILSKALKQAGLAPLNSKGEKLEAHVTTSKYGSLRLSCAASGRTFGSTFMGWFRQAPGKERDFVASITWNRGLTTYADSVKGRFTISRDSAKNTVDLQMNNLKPEDTAVYYCVLGMGTSFASWGQGTQVTVSSHHHHHHEPEA | ≥ 4 | ≥ 4
MbNbH5^c7HopQ MegaBody (CA15904) (other, MegaBody: c7HopQ scaffold inserted in the first β-turn of Nanobody MP1521_H5; Entry includes 6xHis and EPEA tags) QVQLVESGGGLVQTKTTTSVIDTTNDAQNLLTQAQTIVNTLKDYCPILIAKSSSSNGGTNNANTPSWQTAGGGKNSCATFGAEFSAASDMINNAQKIVQETQQLSANQPKNITQPHNLNLNSPSSLTALAQKMLKNAQSQAEILKLANQVESDFNKLSSGHLKDYIGKCDASAISSANMTMQNQKNNWGNGCAGVEETQSLLKTSAADFNNQTPQINQAQNLANTLIQELGNNTYEQLSRLLTNDNGTNSKTSAQAINQAVNNLNERAKTLAGGTTNSPAYQATLLALRSVLGLWNSMGYAVICGGYTKSPGENNQKDFHYTDENGNGTTINCGGSTNSNGTHSYNGTNTLKADKNVSLSIEQYEKIHEAYQILSKALKQAGLAPLNSKGEKLEAHVTTSKYGSLRLSCAASGFTFSTYSMSWVRQAPGKGLEWVSRILTDGGTTSYPDSVKGRFTISRDNAKNTLYLQMNNLKPEDTAVYYCARGWPSDGYSGGYRGQGTQVTVSSHHHHHHEPEA | ≥ 4 | ≥ 4
MbNbC10^c7HopQ MegaBody (CA15905) (other, MegaBody: c7HopQ scaffold inserted in the first β-turn of Nanobody MP1522_C10; Entry includes 6xHis and EPEA tags) QVQLVESGGGLVQTKTTTSVIDTTNDAQNLLTQAQTIVNTLKDYCPILIAKSSSSNGGTNNANTPSWQTAGGGKNSCATFGAEFSAASDMINNAQKIVQETQQLSANQPKNITQPHNLNLNSPSSLTALAQKMLKNAQSQAEILKLANQVESDFNKLSSGHLKDYIGKCDASAISSANMTMQNQKNNWGNGCAGVEETQSLLKTSAADFNNQTPQINQAQNLANTLIQELGNNTYEQLSRLLTNDNGTNSKTSAQAINQAVNNLNERAKTLAGGTTNSPAYQATLLALRSVLGLWNSMGYAVICGGYTKSPGENNQKDFHYTDENGNGTTINCGGSTNSNGTHSYNGTNTLKADKNVSLSIEQYEKIHEAYQILSKALKQAGLAPLNSKGEKLEAHVTTSKYGSLRLSCAASGRTSGSYAIGWFRQAPGKEREFAAAISFTAGVTYYSNSVKGRFTISRDSAKNTAYLQMNTLKPEDTAVYYCATLPSLVLILTAKPNIGYWGQGTQVTVSSHHHHHHEPEA | ≥ 4 | ≥ 4
MbNbA5^c7HopQ MegaBody (CA15906) (other, MegaBody: c7HopQ scaffold inserted in the first β-turn of Nanobody MP1522_A5; Entry includes 6xHis and EPEA tags) QVQLVESGGGLVQTKTTTSVIDTTNDAQNLLTQAQTIVNTLKDYCPILIAKSSSSNGGTNNANTPSWQTAGGGKNSCATFGAEFSAASDMINNAQKIVQETQQLSANQPKNITQPHNLNLNSPSSLTALAQKMLKNAQSQAEILKLANQVESDFNKLSSGHLKDYIGKCDASAISSANMTMQNQKNNWGNGCAGVEETQSLLKTSAADFNNQTPQINQAQNLANTLIQELGNNTYEQLSRLLTNDNGTNSKTSAQAINQAVNNLNERAKTLAGGTTNSPAYQATLLALRSVLGLWNSMGYAVICGGYTKSPGENNQKDFHYTDENGNGTTINCGGSTNSNGTHSYNGTNTLKADKNVSLSIEQYEKIHEAYQILSKALKQAGLAPLNSKGEKLEAHVTTSKYGSLRLSCAASGFAFSNSYMSWVRQAPGKGPEWVSSISPSAWIITHGDSVKGRFTISRDNAKNTLYLQMNHLKPEDAALYYCARRQGYDGYVPSRDYWGQGTQVTVSSHHHHHHEPEA | ≥ 4 | ≥ 4
MbNbB4^c7HopQ MegaBody (CA15907) (other, MegaBody: c7HopQ scaffold inserted in the first β-turn of Nanobody MP1521_B4; Entry includes 6xHis and EPEA tags) QVQLVESGGGLVQTKTTTSVIDTTNDAQNLLTQAQTIVNTLKDYCPILIAKSSSSNGGTNNANTPSWQTAGGGKNSCATFGAEFSAASDMINNAQKIVQETQQLSANQPKNITQPHNLNLNSPSSLTALAQKMLKNAQSQAEILKLANQVESDFNKLSSGHLKDYIGKCDASAISSANMTMQNQKNNWGNGCAGVEETQSLLKTSAADFNNQTPQINQAQNLANTLIQELGNNTYEQLSRLLTNDNGTNSKTSAQAINQAVNNLNERAKTLAGGTTNSPAYQATLLALRSVLGLWNSMGYAVICGGYTKSPGENNQKDFHYTDENGNGTTINCGGSTNSNGTHSYNGTNTLKADKNVSLSIEQYEKIHEAYQILSKALKQAGLAPLNSKGEKLEAHVTTSKYGSLRLSCAASKSFFNIYDLAWYRQAPGKQRELVASITKVGSTNYADSVKGRFTTSRDNAKKTVYLQMNSLKPEDTAVYYCNLVSPGGVYNYWGQGTQVTVSSHHHHHHEPEA | ≥ 4 | ≥ 4
